{
  "source": "paper PMC9490040",
  "about": "“Mechanistic insight into the RNA-stimulated ATPase activity of tick-borne encephalitis virus helicase”",
  "biological_target": "NS3H (NS3 helicase domain) WT (Tick-borne encephalitis virus strain …, UniProt Q01299 1662-2110)",
  "sequence (Q01299 1662-2110)": "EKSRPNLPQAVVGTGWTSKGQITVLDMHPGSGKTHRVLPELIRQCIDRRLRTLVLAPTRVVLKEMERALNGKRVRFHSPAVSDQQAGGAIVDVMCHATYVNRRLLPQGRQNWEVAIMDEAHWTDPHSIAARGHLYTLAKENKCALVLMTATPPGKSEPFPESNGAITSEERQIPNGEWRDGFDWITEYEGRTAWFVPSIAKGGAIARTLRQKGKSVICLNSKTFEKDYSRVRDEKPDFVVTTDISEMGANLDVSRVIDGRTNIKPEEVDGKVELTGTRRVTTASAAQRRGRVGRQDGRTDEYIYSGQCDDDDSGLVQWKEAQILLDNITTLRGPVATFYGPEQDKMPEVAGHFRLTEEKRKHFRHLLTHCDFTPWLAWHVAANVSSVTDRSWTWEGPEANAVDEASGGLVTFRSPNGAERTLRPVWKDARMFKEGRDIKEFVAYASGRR",
  "test": "fluorescence anisotropy; 1 mM Mg2+; no nucleotide; apparent KD; 20 mM Tris-HCl pH 7.5, 100 mM NaCl, 1 mM MgCl2, 7.5% glycerol; 45 min at 30 C; […]",
  "conditions": "protein: recombinant; tags: N-terminal 10xHis (pET-19b); label: 5' 6-FAM; single strand",
  "data": [
    {"binder": "AGAUUUUCUUGC (ssRNA)", "note": "[6-FAM-ssRNA12]", "values": [
      {"measurement": "Kd", "result": "49.7 ± 9.3", "unit": "nM"}
    ]}
  ]
}
